Reference: US20220064321A1

Experiments:
[1] = target: CD16a on effector cells NK92MI-CD16a (UniProt P08637); test: cell-based or functional assay
[2] = target: FcγRIIIa(V158) (Sino Biological Inc, 10389-H08C1) (UniProt P08637); test: binding ELISA; His-tagged FcγRIIIa captured by anti-His antibody, IgG pre-complexed with goat F(ab')2 anti-human-κ, HRP anti-human F(ab')2 detection
Chain of FcγRIIIa(V158) (Sino Biological Inc, 10389-H08C1) (P08637 17-208 F176V limits assumed): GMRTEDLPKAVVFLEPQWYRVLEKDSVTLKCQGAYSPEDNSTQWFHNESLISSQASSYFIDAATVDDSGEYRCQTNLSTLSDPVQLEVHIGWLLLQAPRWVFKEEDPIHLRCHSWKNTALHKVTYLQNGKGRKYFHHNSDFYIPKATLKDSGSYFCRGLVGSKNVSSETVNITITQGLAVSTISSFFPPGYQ

Chain of CD16a on effector cells NK92MI-CD16a (P08637 17-254 limits assumed): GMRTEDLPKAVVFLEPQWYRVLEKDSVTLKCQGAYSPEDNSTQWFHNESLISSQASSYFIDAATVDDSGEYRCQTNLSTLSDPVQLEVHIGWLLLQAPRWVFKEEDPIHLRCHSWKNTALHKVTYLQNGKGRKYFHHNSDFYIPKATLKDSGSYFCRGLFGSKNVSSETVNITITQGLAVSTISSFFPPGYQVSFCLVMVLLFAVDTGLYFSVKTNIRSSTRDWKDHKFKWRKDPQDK

ADCC Target cell: Daudi, EC50 [1]: 4.53 ng/mL | ADCC Target cell: Raji, EC50 [1]: 0.345 ng/mL | EC50 [2]: 194 ng/mL
Substance: RITUXAN® (rituximab) (antibody)
